Results as given in publication PMC2118993 (The Journal of Experimental Medicine, 1991).
Each block holds one molecule with its values, some of them ahead of it. Side chains are listed from the residue outwards. Ends that are not written are not given here. * marks the point of attachment. Biotin = O=C1N[C@H]2[C@H](CS[C@H]2CCCCC(=O)*)N1; Ahx = NCCCCCC(=O)O

Legend:
[1] = molecular target: T1, purified I-Ed class II glycoprotein (Mus musculus, UniProt P01904+P01915); format: binding
T1 sequence (P01904 26-255): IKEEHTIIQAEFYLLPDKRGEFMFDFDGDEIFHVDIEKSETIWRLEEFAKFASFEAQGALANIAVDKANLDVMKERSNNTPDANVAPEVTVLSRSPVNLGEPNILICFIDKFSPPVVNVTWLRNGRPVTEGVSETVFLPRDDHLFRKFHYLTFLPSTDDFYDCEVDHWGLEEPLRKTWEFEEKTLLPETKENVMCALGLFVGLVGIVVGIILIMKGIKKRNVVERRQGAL
T1 sequence (P01915 27-264 limits assumed): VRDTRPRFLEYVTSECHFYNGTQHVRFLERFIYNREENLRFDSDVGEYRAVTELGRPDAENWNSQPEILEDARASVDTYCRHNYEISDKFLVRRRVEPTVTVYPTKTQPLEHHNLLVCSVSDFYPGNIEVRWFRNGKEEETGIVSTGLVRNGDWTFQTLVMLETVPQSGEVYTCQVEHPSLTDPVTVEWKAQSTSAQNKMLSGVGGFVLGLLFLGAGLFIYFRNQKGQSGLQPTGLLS

[2] = tested on: purified I-Ad class II glycoprotein; format: binding, mouse; details: immunoassay
[3] = molecular target: I-Ed class II MHC glycoprotein, purified (mouse (endogenous in A20 B lymphoma)); experiment: ELISA

- inhibition of binding of biotin-HEL(104-120) to I-Ed by unlabeled peptide ([1]; 2 μM biotin-HEL(104-120), 24 h, at higher competitor concentrations): partially inhibited
Molecule: FISEAIIHVLHSR [Myo(106-118), reference compound]

- optimum pH of binding to I-Ed ([1]; 40 h at various pHs, 2 μM biotin-HEL(104-120) or 10 μM biotin-Myo(106-118)): more acidic pH
- binding to I-Ed (in words) ([1]; immunoassay): weakly
- binding to I-Ad (in words) [2]: binds well
Molecule: biotin-Myo(106-118): Myo(106-118) biotinylated with biotin-amidocaproate N-hydroxysuccinimide ester at the free α amino group ({Biotin-Ahx}-FISEAIIHVLHSR)

- Kd [3]: 2330 nM
Molecule: {Biotin-Ahx}-GMNAWVAWRNRCK([Ahx-Biotin])GTDVY [biotin-HEL(104-120)]
